Literature values, collected in PMC3985698.

Biological target: Bad (Homo sapiens) (UniProt Q92934)
Conditions: cited from earlier work

Sequence of UniProt Q92934 (Q92934 whole entry): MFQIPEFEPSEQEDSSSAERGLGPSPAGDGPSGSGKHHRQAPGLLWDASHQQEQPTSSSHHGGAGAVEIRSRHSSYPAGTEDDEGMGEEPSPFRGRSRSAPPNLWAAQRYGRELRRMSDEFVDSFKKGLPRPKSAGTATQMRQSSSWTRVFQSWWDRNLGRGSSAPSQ

Substance: Bcl-xL (from UniProt Q07817)
- Kd: 600 pM
